± gives the standard deviation of the averaged measurements.
System: ATP
Assay: switch fluorescence ratio, 500 uM ATP over buffer (Cy3 cluster intensity, sum of 5 cycles each) (fold (ratio)); higher = stronger signal-on switching upon ATP binding; sequences stand for … in TCGTCGGCAGCGTCAGATGTGTATAAGAGACAGTTTTTTTTTTTTTTTTTTTTTTTTT…TC
Conditions: aptamer strand: ATP DNA aptamer (quencher-CACCTGGGGGAGTATTGCGGAGGAAGG + anchor), 100 nM annealed; ATP concentration: 500 uM
Outline: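 Switching-strand clusters labelled with Cy3 on a modified Illumina MiSeq flow-cell were annealed to 100 nM quencher-labelled ATP aptamer, imaged in selection buffer, and re-imaged after 15 min with 500 uM ATP at 22 °C. This was done over five cycles with NaOH stripping and re-annealing in between. The fluorescence ratio is summed target-cycle over summed buffer-cycle Cy3 intensity per cluster, averaged per switch-domain sequence, excluding clusters outside 100-1000 RFU.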
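Further: ATP exposure 15 min at 22 °C before imaging.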

| Sequence | switch fluorescence ratio |
| --- | --- |
| TTCCGGGGAA | 1.16 ± 0.21 |
| TTCCGGTGTT | 1.05 ± 0.079 |
| TTCCGGTTGG | 1 ± 0.023 |
| TTCCTAAAGA | 1.06 ± 0.03 |
| TTCCTAAATT | 0.9979 ± 0.0034 |
| TTCCTAATGG | 1.04 ± 0.046 |
| TTCCTAATTT | 1.63 ± 0.94 |
| TTCCTCGGGT | 1.03 ± 0.014 |
| TTCCTGAAGG | 1.02 ± 0.041 |
| TTCCTGGCGG | 1.11 ± 0.1 |
| TTCCTTCT | 1.13 ± 0.11 |
| TTCCTTGCGT | 1.14 ± 0.043 |
| TTCCTTGGGA | 0.984 ± 0.014 |
| TTCCTTGTAG | 1.02 ± 0.017 |
| TTCGAAAGTT | 0.987 ± 0.026 |
| TTCGACATGT | 1.025 ± 0.0042 |
| TTCGAGCTAA | 1.2 ± 0.26 |
| TTCGAGTCGT | 1.006 ± 0.0034 |
| TTCGATAAGA | 0.999 ± 0.06 |
| TTCGATAATC | 1.15 ± 0.16 |
| TTCGATATGT | 0.984 ± 0.022 |
| TTCGATCCGT | 1.07 ± 0.029 |
| TTCGATTGGG | 0.95725 ± 0.00037 |
| TTCGCAGGGA | 1.074 ± 0.0042 |
| TTCGCATATT | 1.47 ± 0.26 |
| TTCGCCAGAT | 1.04 ± 0.035 |

| Sequence | switch fluorescence ratio |
| --- | --- |
| TTCGCGAGGT | 2.67 ± 2.3 |
| TTCGCGATGT | 1.13 ± 0.11 |
| TTCGCGTGTT | 1.003 ± 0.0055 |
| TTCGCTACGT | 1.02 ± 0.021 |
| TTCGCTAGCT | 1.03 ± 0.058 |
| TTCGGACGGT | 1.04 ± 0.06 |
| TTCGGAGCGG | 1.34 ± 0.24 |
| TTCGGATAAA | 1.01 ± 0.058 |
| TTCGGATATA | 0.9915 ± 0.0063 |
| TTCGGCAACG | 0.997 ± 0.035 |
| TTCGGCTCTC | 1.63 ± 0.86 |
| TTCGGCTTGG | 0.984 ± 0.035 |
| TTCGGCTTTT | 0.983 ± 0.024 |
| TTCGGGAAGC | 1.018 ± 0.0056 |
| TTCGGGCGCG | 0.952 ± 0.021 |
| TTCGGGGGGG | 1.01 ± 0.043 |
| TTCGGGGTCG | 0.985 ± 0.072 |
| TTCGGGGTTT | 1.02 ± 0.06 |
| TTCGGGTGCT | 1.08 ± 0.052 |
| TTCGGTGGGG | 0.9805 ± 0.0094 |
| TTCGGTGTTT | 1.02 ± 0.022 |
| TTCGGTTAGT | 1 ± 0.012 |
| TTCGTACCGC | 1.09 ± 0.029 |
| TTCGTACGAG | 1 ± 0.026 |
| TTCGTATAGA | 1 ± 0.041 |
| TTCGTATATA | 1.01 ± 0.018 |

| Sequence | switch fluorescence ratio |
| --- | --- |
| TTCGTATATC | 1.7 ± 0.93 |
| TTCGTATCAG | 1.02 ± 0.035 |
| TTCGTATCAT | 1.049 ± 0.0097 |
| TTCGTGAACG | 1 ± 0.071 |
| TTCGTGATTT | 1.02 ± 0.04 |
| TTCGTGCAGG | 1.02 ± 0.043 |
| TTCGTGTAAG | 1.02 ± 0.015 |
| TTCGTGTACA | 1.03 ± 0.026 |
| TTCGTGTATC | 0.999 ± 0.011 |
| TTCGTGTTGG | 0.973 ± 0.025 |
| TTCGTTAGCA | 1.54 ± 0.8 |
| TTCGTTATAG | 1.01 ± 0.044 |
| TTCGTTGTGG | 1.031 ± 0.0047 |
| TTCGTTTAGT | 1.039 ± 0.0026 |
| TTCGTTTATC | 1.07 ± 0.093 |
| TTCGTTTGAC | 1.03 ± 0.1 |
| TTCTAACTCA | 1.02 ± 0.029 |
| TTCTAAGGAG | 1.017 ± 0.0022 |
| TTCTAAGTA | 1.021 ± 0.0044 |
| TTCTAATCGG | 1.006 ± 0.01 |
| TTCTAATTTG | 0.968 ± 0.058 |
| TTCTAATTTT | 0.995 ± 0.027 |
| TTCTAGCGAA | 1.17 ± 0.22 |
| TTCTAGCTTG | 1.01 ± 0.047 |
| TTCTAGGAAT | 1.02 ± 0.059 |
| TTCTAGTTAC | 1.047 ± 0.0056 |

| Sequence | switch fluorescence ratio |
| --- | --- |
| TTCTATTTAA | 1.02 ± 0.029 |
| TTCTCCGGTT | 1.31 ± 0.29 |
| TTCTCGGTTT | 1.02 ± 0.025 |
| TTCTCTAGAT | 1.056 ± 0.0066 |
| TTCTCTATTT | 0.983 ± 0.028 |
| TTCTGAAGC | 3.69 ± 1 |
| TTCTGAATAT | 1.01 ± 0.024 |
| TTCTGGCACG | 1.12 ± 0.18 |
| TTCTGGGGGG | 0.991 ± 0.027 |
| TTCTGGTCTA | 0.986 ± 0.011 |
| TTCTGTGGAA | 1.04 ± 0.036 |
| TTCTGTTAAA | 1.02 ± 0.027 |
| TTCTGTTATT | 1.11 ± 0.21 |
| TTCTGTTGAC | 1.7 ± 0.95 |
| TTCTGTTTTT | 1.09 ± 0.15 |
| TTCTTAAAAA | 0.993 ± 0.026 |
| TTCTTACTGG | 0.995 ± 0.021 |
| TTCTTAGAAA | 0.991 ± 0.019 |
| TTCTTCGGGC | 1.08 ± 0.077 |
| TTCTTGACTT | 1.02 ± 0.011 |
| TTCTTGATTT | 1 ± 0.035 |
| TTCTTGCTGG | 0.997 ± 0.019 |
| TTCTTGGGTA | 0.989 ± 0.011 |
| TTCTTTATAT | 0.9721 ± 0.005 |
| TTCTTTATGG | 0.973 ± 0.028 |
| TTCTTTGATT | 1 ± 0.011 |

| Sequence | switch fluorescence ratio |
| --- | --- |
| TTCTTTGGTT | 0.9889 ± 0.0055 |
| TTCTTTGTTT | 1.01 ± 0.024 |
| TTCTTTTACG | 1.049 ± 0.0082 |
| TTCTTTTATA | 0.99 ± 0.04 |
| TTCTTTTTAT | 0.982 ± 0.03 |
| TTCTTTTTCA | 1.06 ± 0.067 |
| TTGAAAAAAT | 1.06 ± 0.13 |
| TTGAAACCGG | 0.998 ± 0.017 |
| TTGAAATTAC | 1.03 ± 0.065 |
| TTGAAGAGG | 1.02 ± 0.035 |
| TTGAAGGCGT | 1 ± 0.026 |
| TTGAAGTTAT | 0.9897 ± 0.0021 |
| TTGAAGTTCG | 0.986 ± 0.022 |
| TTGAAGTTTT | 0.991 ± 0.039 |
| TTGAATACCC | 1.052 ± 0.008 |
| TTGAATGCCA | 0.99 ± 0.028 |
| TTGAATGCCG | 1.04 ± 0.035 |
| TTGAATGGGG | 1.05 ± 0.043 |
| TTGAATGTTG | 1.004 ± 0.0037 |
| TTGAATGTTT | 0.992 ± 0.059 |
| TTGAATTTTA | 0.999 ± 0.033 |
| TTGACAGGGC | 0.952 ± 0.057 |
| TTGACATGC | 1.01 ± 0.044 |
| TTGACCCAGG | 1.23 ± 0.11 |
| TTGACCGCTG | 1.16 ± 0.03 |
| TTGACCTTTG | 1.01 ± 0.011 |

| Sequence | switch fluorescence ratio |
| --- | --- |
| TTGACGAGTA | 1.1 ± 0.13 |
| TTGACGGGGG | 1.01 ± 0.03 |
| TTGACGTGCC | 1.021 ± 0.0033 |
| TTGACTGGG | 0.991 ± 0.023 |
| TTGACTGGTG | 1.02 ± 0.013 |
| TTGACTTGTG | 0.971 ± 0.022 |
| TTGAGCATTT | 0.982 ± 0.03 |
| TTGAGCCCCG | 0.951 ± 0.047 |
| TTGAGCGAGG | 0.961 ± 0.01 |
| TTGAGCTAGA | 0.971 ± 0.025 |
| TTGAGGATCA | 1.02 ± 0.029 |
| TTGAGGATGT | 1 ± 0.034 |
| TTGAGGGATA | 1.01 ± 0.055 |
| TTGAGGGGGC | 1.01 ± 0.05 |
| TTGAGGGGGG | 1.01 ± 0.048 |
| TTGAGGGTTG | 0.987 ± 0.037 |
| TTGAGGTTGT | 0.99 ± 0.028 |
| TTGAGTAATG | 1.01 ± 0.017 |
| TTGAGTGAAA | 0.999 ± 0.0017 |
| TTGAGTGACG | 0.9845 ± 0.0025 |
| TTGAGTTAAA | 0.991 ± 0.037 |
| TTGAGTTATT | 0.96 ± 0.031 |
| TTGATAAAGG | 1.02 ± 0.026 |
